The labels stand for the following.
B1: p67^phox(1–212) [not stated] / Nox2 peptide 24 (357–371) with an intramolecular disulfide bond between C369 and C371 [modified: biotin on the N-terminus; C-terminal amide; intramolecular disulfide bond between C369 and C371; biotin on the … (parent complex)
chain 1: MSLVEAISLWNEGVLAADKKDWKGALDAFSAVQDPHSRICFNIGCMYTILKNMTEAEKAFTRSINRDKHLAVAYFQRGMLYYQTEKYDLAIKDLKEALIQLRGNQLIDYKILGLQFKLFACEVLYNIAFMYAKKEEWKKAEEQLALATSMKSEPRHSKIDKAMECVWKQKLYEPVVIPVGKLFRPNERQVAQLAKKDYLGKATVVASVVDQD
chain 2: SGSGIVGDWTEGLFNACGC

The values below come from publication PMC4316792, “The dehydrogenase region of the NADPH oxidase component Nox2 acts as a protein disulfide isomerase (PDI) resembling PDIA3 with a role in the binding of the activator protein p67^phox” (Frontiers in Chemistry, 2015).

The assay covers variants of B1. Kind of assay: peptide-protein binding assay (surface-attached biotinylated peptide, protein in solution, kinetic TMB oxidation read-out); 10 min kinetic experiment; read off a plot.
Take chain 1 MSLVEAISLWNEGVLAADKKDWKGALDAFSAVQDPHSRISFNIGSMYTILKNMTEAEKAFTRSINRDKHLAVAYFQRGMLYYQTEKYDLAIKDLKEALIQLRGNQLIDYKILGLQFKLFASEVLYNIAFMYAKKEEWKKAEEQLALATSMKSEPRHSKIDKAMESVWKQKLYEPVVIPVGKLFRPNERQVAQLAKKDYLGKATVVASVVDQD [chain 1 C40S, chain 1 C45S, chain 1 C121S, chain 1 C165S]: the response is ~12 Absorbance (650 nm) x 1000/min.
